This note sets out measurements from US20240173426A1 (Regeneron, published 2024).

Assay [1] concerns the target T1, human fibroblast growth factor basic (hFGF basic) (human, UniProt P09038 144-288).
T1 construct: Bought; also called Biolegend 571508
Briefly: ELISA, receptor-Fc on plate-coated hFGF basic with heparin; fixed concentration said to be chosen near the EC50 of this binding.

In assay [2] the target is T2, human fibroblast growth factor acidic (hFGF acidic) (human, UniProt P05230 2-155, limits assumed).
T2 construct: Bought; coated on the plate with heparin; also called FGF1 acidic
Description: ELISA, receptor-Fc on plate-coated hFGF acidic with heparin; fixed concentration said to be chosen near the EC50 of this binding. For orientation: ELISA stands for enzyme-linked immunosorbent assay.

The target of assay [3] is T3, human FGFR3b expressed with a C-terminal myc-myc-hexahistidine tag (hFGFR3b.mmH) (human).
T3 construct: monomeric; also called REGN3152; monomeric human FGFR3b
T3 chain: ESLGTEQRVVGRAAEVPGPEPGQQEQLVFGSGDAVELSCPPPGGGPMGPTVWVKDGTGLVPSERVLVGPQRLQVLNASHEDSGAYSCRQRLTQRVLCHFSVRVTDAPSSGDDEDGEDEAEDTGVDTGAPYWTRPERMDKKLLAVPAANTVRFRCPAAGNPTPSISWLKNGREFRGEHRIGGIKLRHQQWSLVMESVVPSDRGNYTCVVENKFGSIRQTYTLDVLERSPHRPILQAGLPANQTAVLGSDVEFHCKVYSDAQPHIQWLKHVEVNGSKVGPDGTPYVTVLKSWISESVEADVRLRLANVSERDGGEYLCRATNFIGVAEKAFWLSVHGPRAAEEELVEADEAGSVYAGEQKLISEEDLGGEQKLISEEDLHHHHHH
Description: SPR (Biacore), captured mAb, 25 C. Here is the method: (§1) The CM5 Biacore sensor surface was derivatized by amine coupling with a monoclonal mouse anti-human Fc monoclonal antibody (REGN2567). All Biacore binding studies were performed in a buffer composed of 0.01M HEPES pH 7.4, 0.15 M NaCl, 3 mM EDTA, 0.05% v/v Surfactant P20 (HBS-EP running buffer). […] Antibody-reagent association was monitored for 5 minutes while dissociation in HBS-EP running buffer was monitored for 10 minutes. At the end of each cycle, the anti-FGFR3 antibody capture surface was regenerated using a 10 sec injection of 20 mM phosphoric acid. All binding kinetics experiments were performed at 25° C.
(§2) The specific SPR-Biacore sensorgrams were obtained by a double referencing procedure. The double referencing was performed by first subtracting the signal of each injection over a reference surface (anti-hFc) from the signal over the experimental surface (anti-hFc-captured anti-FGFR3 antibodies) thereby removing contributions from refractive index changes. In addition, running buffer injections were performed to allow subtraction of the signal changes resulting from the dissociation of captured antibodies from the coupled anti-hFc surface. Kinetic association (kₐ) and dissociation (kd) rate constants were determined by fitting the real-time sensorgrams to a 1:1 binding model using Scrubber v2.0c curve fitting software.
A general note: SPR reads the build-up and loss of mass on a sensor chip optically.

Assay [4] addresses T4, human FGFR3b expressed with a C-terminal murine Fc tag (hFGFR3b.mFc) (human).
T4 construct: called dimeric; also called REGN3153; dimeric human FGFR3b
T4 chain: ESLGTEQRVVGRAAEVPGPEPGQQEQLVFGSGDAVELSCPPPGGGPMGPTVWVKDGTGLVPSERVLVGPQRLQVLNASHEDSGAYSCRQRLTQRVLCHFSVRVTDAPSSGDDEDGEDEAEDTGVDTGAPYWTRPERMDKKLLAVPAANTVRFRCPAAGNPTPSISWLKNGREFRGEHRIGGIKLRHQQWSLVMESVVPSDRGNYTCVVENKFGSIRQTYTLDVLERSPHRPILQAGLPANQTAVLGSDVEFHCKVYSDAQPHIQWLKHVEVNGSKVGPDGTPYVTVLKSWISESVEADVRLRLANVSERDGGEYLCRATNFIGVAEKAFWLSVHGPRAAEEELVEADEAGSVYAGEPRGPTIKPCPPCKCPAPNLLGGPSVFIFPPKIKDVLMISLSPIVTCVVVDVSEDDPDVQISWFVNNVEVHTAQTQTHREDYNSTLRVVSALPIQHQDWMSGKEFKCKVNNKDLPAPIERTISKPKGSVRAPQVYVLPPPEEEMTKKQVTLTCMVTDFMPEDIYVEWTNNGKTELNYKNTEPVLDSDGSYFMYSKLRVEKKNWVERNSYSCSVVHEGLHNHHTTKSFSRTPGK
Briefly: SPR (Biacore), captured mAb, 25 C. Here is the method:
as §1, §2

For assay [5], the target named is T5, murine FGFR3b expressed with a C-terminal myc-myc-hexahistidine tag (mFGFR3b.mmH) (mouse).
T5 construct: monomeric; also called REGN3215; monomeric murine FGFR3b
T5 chain: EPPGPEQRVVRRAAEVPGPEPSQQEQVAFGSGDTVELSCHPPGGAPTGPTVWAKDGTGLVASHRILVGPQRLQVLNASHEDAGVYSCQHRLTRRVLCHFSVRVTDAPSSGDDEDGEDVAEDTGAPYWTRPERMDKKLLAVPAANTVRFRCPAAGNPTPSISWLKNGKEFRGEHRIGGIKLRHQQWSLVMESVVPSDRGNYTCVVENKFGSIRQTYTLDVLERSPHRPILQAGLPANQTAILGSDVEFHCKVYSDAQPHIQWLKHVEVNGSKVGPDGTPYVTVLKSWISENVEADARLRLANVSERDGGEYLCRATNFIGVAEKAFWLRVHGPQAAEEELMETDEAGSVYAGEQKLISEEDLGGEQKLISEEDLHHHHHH
Description: SPR (Biacore), captured mAb, 25 C. As for the experimental part:
as §1, §2

Assay [6] has as its target T6, human FGFR3c expressed with a C-terminal myc-myc-hexahistidine tag (hFGFR3c.mmH) (human, UniProt P22607 23-375).
T6 construct: monomeric; also called REGN3155; monomeric human FGFR3c
Briefly: SPR (Biacore), captured mAb, 25 C. As for the experimental part:
as §1, §2

In assay [7] the target is T3, human FGFR3b expressed with a …. Briefly: SPR (Biacore), recombinant human FGFR3 protein.

The term EC50 denotes the concentration at which the effect is half-maximal. The low end stands for an effect from little substance, the high end for a need for much substance. Broadly, the t½ is the time in which the quantity being followed falls by half. For orientation: Kd means the equilibrium constant for the complex coming apart.

T1 sequence (P09038 144-288, form in doubt): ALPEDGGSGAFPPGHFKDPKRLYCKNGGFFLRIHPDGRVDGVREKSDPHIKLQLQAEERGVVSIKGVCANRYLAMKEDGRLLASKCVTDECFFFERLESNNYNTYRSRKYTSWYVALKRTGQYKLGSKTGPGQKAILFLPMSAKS
T2 sequence (P05230 2-155 limits assumed, form in doubt): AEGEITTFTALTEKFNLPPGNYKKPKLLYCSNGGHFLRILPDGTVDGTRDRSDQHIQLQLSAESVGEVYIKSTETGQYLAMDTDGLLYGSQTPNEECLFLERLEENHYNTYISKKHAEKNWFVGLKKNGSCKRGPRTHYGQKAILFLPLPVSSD

B1: hFGFR3c-hFc (Fc fusion, human, UniProt P22607 23-375, looked up)
chain: ESLGTEQRVVGRAAEVPGPEPGQQEQLVFGSGDAVELSCPPPGGGPMGPTVWVKDGTGLVPSERVLVGPQRLQVLNASHEDSGAYSCRQRLTQRVLCHFSVRVTDAPSSGDDEDGEDEAEDTGVDTGAPYWTRPERMDKKLLAVPAANTVRFRCPAAGNPTPSISWLKNGREFRGEHRIGGIKLRHQQWSLVMESVVPSDRGNYTCVVENKFGSIRQTYTLDVLERSPHRPILQAGLPANQTAVLGSDVEFHCKVYSDAQPHIQWLKHVEVNGSKVGPDGTPYVTVLKTAGANTTDKELEVLSLHNVTFEDAGEYTCLAGNSIGFSHHSAWLVVLPAEEELVEADEAGSVYAG
notes: range 23-375; Bought (R&D Systems); also called human FGFR3c extracellular domain with human IgG1 Fc; R&D Systems 766-FR-050; not shown: Fc portion of human IgG1 at the C-terminus, amino acids Pro100-Lys330
With B1, the results for the EC50 in assay [1] and in assay [2] were around 7 nM and around 0.4 nM, respectively.

B2: H4H30093P2 (antibody, human IgG4 S228P, kappa, V domains shown)
VH: QVQLVESGGGLVKPGGSLRLSCAASGFTFNDYPMSWIRQAPGKGLEWVSYITSSSGSTIYYADSVKGRFTISRDNAKNSLYLQMNSLRAEDTAVYYCAREVVVATIGGYYGMDVWGQGTTVTVSS
VL: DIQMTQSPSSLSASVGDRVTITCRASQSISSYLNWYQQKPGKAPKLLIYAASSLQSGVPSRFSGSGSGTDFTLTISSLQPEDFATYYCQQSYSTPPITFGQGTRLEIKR
With B2, the t½ in assay [3] turned out to be 5.5 min; in assay [4], 745 min; in assay [5] it was 1.2 min; in assay [6], 3.5 min. Moreover, the Kd in assay [7] came to 9.06 nM.
